Tests used:
[1] = target: T1, human MerTK endogenously expressed on cells (SK-MEL-5 cells; human macrophages) (human, UniProt Q12866 21-999); experiment: cell-based or functional assay
T1 sequence: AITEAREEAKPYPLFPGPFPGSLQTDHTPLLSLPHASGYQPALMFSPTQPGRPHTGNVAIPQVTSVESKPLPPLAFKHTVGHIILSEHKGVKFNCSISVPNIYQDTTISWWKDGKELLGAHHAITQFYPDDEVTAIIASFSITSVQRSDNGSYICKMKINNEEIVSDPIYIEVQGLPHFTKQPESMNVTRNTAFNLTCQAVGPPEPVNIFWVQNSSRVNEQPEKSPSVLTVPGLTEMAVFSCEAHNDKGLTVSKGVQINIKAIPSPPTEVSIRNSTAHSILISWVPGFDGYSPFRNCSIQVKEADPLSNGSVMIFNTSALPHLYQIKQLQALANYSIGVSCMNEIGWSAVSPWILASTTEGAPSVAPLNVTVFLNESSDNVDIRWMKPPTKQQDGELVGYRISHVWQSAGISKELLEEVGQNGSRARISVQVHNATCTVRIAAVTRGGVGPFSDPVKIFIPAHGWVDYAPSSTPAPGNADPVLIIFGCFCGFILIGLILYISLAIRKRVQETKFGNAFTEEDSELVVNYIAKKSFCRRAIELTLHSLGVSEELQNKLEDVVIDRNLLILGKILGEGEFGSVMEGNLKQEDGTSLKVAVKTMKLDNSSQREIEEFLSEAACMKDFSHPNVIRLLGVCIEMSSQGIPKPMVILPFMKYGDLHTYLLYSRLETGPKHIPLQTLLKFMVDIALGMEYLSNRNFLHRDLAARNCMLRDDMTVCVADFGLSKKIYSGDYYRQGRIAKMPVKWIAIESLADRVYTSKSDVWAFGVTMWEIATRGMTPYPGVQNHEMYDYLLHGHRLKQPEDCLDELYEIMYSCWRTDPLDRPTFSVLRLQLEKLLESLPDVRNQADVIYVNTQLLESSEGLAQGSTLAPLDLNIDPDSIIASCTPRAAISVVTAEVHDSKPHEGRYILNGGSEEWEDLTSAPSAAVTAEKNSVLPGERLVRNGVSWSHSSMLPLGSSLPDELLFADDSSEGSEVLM

[2] = target: T2, Recombinant human MerTK human Fc Chimera protein (R&D systems, Cat #391-MR-100) (human, UniProt Q12866 26-499, limits assumed); experiment: competition ELISA, His-ProS on captured MerTK-Fc
T2 construct: Bought; also called recombinant human MerTK protein; MerTK-Fc
T2 sequence: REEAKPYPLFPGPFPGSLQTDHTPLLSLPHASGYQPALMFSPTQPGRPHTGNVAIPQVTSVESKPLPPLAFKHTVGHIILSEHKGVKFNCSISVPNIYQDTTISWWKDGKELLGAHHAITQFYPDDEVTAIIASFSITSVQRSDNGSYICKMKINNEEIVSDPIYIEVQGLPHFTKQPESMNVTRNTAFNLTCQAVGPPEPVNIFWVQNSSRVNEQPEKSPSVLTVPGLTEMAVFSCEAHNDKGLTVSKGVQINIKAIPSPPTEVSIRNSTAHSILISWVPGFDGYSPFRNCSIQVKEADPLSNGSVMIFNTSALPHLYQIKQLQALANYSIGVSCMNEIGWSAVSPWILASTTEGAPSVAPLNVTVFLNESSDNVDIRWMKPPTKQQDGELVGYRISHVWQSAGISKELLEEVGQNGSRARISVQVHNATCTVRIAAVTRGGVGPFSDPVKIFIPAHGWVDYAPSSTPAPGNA
Method: Rabbit anti-human IgG polyclonal antibody (Jackson ImmunoResearch, Cat #309-005-008) was captured to a high-protein binding plate at 2 μg/ml 4° C. overnight. After washing with 0.05% Tween20 in PBS three times, 5% BSA in PBS was added for 1 hour. Recombinant human MerTK human Fc Chimera protein (R&D systems, Cat #391-MR-100) was added at 2 μg/ml for 1 hour and the plates were then washed. Anti-MerTK antibodies were titrated to final concentration range of between 66.6 nM to 4 pM and then 40 μl of serially diluted antibody and 40 μl of His tag-conjugated recombinant Gas6 protein (R&D systems, Cat #885-GSB-050) at 3 μg/ml or His tag-conjugated recombinant ProS protein (R&D systems, Cat #9489-PS-100) at 20 μg/ml. After a further incubation for 1 hour, plates were washed and incubated for 1 hour with HRP-conjugated anti-6×His tag antibody (Abcam, Cat #ab1187). Plates were then washed and an HRP substrate (TMB) was used to develop the plates. After sufficient color change was observed, the reaction was stopped by adding 50 μl 2N H₂SO₄ and the OD was measured using a spectrophotometer (BioTek).
From these experiments, IC50 values [nM] were determined using OD450 values obtained from the dose-response curves analyzed with Prism software. Table 14 and Table 15 show IC50 values determined for anti-MerTK antibody blocking of Gas6 ligand binding and ProS ligand binding to MerTK. […] Dashes indicate lack of significant blocking; “n.a.” indicates data not available.

[3] = target: T3, cyno MerTK extracellular domain (ECD), recombinant (cynomolgus monkey, UniProt Q12866 21-505 (human entry)); experiment: SPR, Carterra LSA
T3 construct: also called cynomolgus MerTK; not shown: polyHis tag or TEVS/Thrombin/murine IgG2a Fc tag
T3 chain: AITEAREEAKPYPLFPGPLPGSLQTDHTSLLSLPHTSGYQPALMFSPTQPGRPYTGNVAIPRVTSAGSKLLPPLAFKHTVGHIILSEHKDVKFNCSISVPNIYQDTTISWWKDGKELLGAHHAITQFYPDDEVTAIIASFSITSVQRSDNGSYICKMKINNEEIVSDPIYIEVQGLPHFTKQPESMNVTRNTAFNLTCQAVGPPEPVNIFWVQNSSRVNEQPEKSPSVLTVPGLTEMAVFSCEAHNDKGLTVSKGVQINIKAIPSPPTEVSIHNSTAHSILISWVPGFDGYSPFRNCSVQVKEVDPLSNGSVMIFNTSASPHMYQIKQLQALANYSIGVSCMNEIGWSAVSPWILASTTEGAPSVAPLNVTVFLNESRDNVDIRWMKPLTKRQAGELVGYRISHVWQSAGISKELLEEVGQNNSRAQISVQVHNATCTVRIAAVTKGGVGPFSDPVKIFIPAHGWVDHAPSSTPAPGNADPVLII

B1: MTK-09 (antibody, human IgG1, V domains shown)
VH: QVQLQQSGAELVRPGASVKISCKAFGYTFTNHHIKWVKQRPGQGLDWIGYIDPYNDYTTYNQNFKGKATLTVDKSSSTAYMELSSLTSEDSAVYYCARRAYDGYYVDWYFDVWGAGTTVTVSS
VL: DIVMTQSHKFMSTSVGDRVSITCKASQDVTTSVAWYHQKPGQSPELLIYSASYRYTGVPDRFTGSGSGTDFTFTISSVQAEDLAIYYCQQHYSTPLTFGSGTKLQLK
- Gas6-mediated pAKT activity, average IC50, human M2c macrophages [1]: 1.67 nM
- IC50 [2]: 7.84 nM
- binding result [3]: binds
